In data set [1] the test system is biglycan.
In data set [2] the test system is Dnp-GPVNFRVC(Me)-NH2.
Data set [3] has as its target type IV collagen (UniProt P08572).
The subject of data set [4] is Dabcyl-GPHPFRGC(Flu)-NH2.
The test system of data set [5] is Dnp-GPINLHG-NH2.
For data set [6], the system named is Dnp-GPLGFRGC(Me)-NH2.
In data set [7] the test system is Dnp-GPLSIQD-NH2.
Data set [8] concerns Dnp-GPVNLHG-NH2.
The subject of data set [9] is Dnp-GPLPFRVC(Me)-NH2.
In data set [10] the test system is Dnp-GPLQFRG-NH2.
Data set [11] relates to Dnp-VTPYNMRG-NH2.
Data set [12] concerns Dnp-GPRPFRG-NH2.
For data set [13], the system named is Dnp-GPKGMRG-NH2.
The test system of data set [14] is Dnp-PINLHG-NH2.
Data set [15] has as its system Dnp-GPAPFRGC(Me)-NH2.
The subject of data set [16] is Dnp-GPSPFHVC(Me)-NH2.
Data set [17] has as its system Dnp-GPAPLHVC(Me)-NH2.
Data set [18] deals with Dnp-GPSGIHV-NH2.
Data set [19] deals with Dnp-GPHPMRG-NH2.
The subject of data set [20] is Dnp-PLGMRG-NH2.
Data set [21] relates to Dnp-GPSPFRGC(Me)-NH2.
Data set [22] deals with Dnp-GPYGMRA-NH2.
The subject of data set [23] is Dabcyl-GPVNLHGC(Flu)-NH2.
In data set [24] the test system is Dnp-GPAPLHGC(Me)-NH2.
Data set [25] concerns Dnp-GPLGLHGC(Me)-NH2.
Data set [26] concerns Dnp-GPLGFRVC(Me)-NH2.
The subject of data set [27] is Dnp-GPVNLHGRC(Me)-NH2.
The subject of data set [28] is Dnp-GPLSFQG-NH2.
For data set [29], the system named is Dnp-GPLQMRG-NH2.
Data set [30] deals with Dnp-PHPFRG-NH2.
The subject of data set [31] is Dnp-GPLPFRGC(Me)-NH2.
Data set [32] deals with Dnp-GPFGLKG-NH2.
The test system of data set [33] is Dnp-GPMSYNG-NH2.
Data set [34] deals with Dnp-GPLPLHGC(Me)-NH2.
The test system of data set [35] is Dnp-GPLGMRG-NH2.
The subject of data set [36] is Dnp-GPHPFRG-NH2.
For data set [37], the system named is Dab-SYPSGIHLC(Flu)LQR-NH2.
Data set [38] has as its system Dnp-GPLSISG-NH2.
Data set [39] concerns Dnp-DEGPMGLKC(Me)YLG-NH2.
Data set [40] deals with Dnp-GPLGLHVC(Me)-NH2.
Data set [41] relates to Dabcyl-GPLGMRGC(Fluorescein)-NH2.
In data set [42] the test system is Dnp-GPSGIHL-NH2.
In data set [43] the test system is Dnp-GPLPFHVC(Me)-NH2.
The test system of data set [44] is Dnp-GPSELKG-NH2.
Data set [45] relates to Dnp-GPSPLHGC(Me)-NH2.
Data set [46] deals with Dnp-VC(Me)PKGITSC(Me)VFR-NH2.
The subject of data set [47] is Dnp-PSGIHL-NH2.
The test system of data set [48] is Dnp-GPAPFRVC(Me)-NH2.
The subject of data set [49] is Dnp-GPKGITS-NH2.
Data set [50] deals with Dnp-GPVNLHGC(Me)-NH2.

“And” between values parts separate entries of the source, which are not always exact repeats. Identical values can stand only once.

This is an account of results in patent publication US20030229005.

Sequence of gelatinase B (chain, as listed by the source): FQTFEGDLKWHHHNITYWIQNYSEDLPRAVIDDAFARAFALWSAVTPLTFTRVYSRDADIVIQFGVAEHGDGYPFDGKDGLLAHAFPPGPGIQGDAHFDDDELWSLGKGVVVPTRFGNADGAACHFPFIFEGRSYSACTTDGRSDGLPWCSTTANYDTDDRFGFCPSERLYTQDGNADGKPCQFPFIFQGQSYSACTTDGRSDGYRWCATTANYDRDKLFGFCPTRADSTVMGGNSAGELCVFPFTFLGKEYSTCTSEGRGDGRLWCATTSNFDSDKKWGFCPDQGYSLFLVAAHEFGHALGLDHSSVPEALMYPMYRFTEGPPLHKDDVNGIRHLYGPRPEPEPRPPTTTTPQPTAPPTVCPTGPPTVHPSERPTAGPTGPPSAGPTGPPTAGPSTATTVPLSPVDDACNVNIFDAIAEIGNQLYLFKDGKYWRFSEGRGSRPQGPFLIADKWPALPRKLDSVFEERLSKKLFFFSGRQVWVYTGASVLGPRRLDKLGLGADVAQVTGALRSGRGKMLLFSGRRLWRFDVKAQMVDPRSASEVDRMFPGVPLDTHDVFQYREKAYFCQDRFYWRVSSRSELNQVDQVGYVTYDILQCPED
Sequence of type IV collagen (P08572 26-1712, chain 1 of 2): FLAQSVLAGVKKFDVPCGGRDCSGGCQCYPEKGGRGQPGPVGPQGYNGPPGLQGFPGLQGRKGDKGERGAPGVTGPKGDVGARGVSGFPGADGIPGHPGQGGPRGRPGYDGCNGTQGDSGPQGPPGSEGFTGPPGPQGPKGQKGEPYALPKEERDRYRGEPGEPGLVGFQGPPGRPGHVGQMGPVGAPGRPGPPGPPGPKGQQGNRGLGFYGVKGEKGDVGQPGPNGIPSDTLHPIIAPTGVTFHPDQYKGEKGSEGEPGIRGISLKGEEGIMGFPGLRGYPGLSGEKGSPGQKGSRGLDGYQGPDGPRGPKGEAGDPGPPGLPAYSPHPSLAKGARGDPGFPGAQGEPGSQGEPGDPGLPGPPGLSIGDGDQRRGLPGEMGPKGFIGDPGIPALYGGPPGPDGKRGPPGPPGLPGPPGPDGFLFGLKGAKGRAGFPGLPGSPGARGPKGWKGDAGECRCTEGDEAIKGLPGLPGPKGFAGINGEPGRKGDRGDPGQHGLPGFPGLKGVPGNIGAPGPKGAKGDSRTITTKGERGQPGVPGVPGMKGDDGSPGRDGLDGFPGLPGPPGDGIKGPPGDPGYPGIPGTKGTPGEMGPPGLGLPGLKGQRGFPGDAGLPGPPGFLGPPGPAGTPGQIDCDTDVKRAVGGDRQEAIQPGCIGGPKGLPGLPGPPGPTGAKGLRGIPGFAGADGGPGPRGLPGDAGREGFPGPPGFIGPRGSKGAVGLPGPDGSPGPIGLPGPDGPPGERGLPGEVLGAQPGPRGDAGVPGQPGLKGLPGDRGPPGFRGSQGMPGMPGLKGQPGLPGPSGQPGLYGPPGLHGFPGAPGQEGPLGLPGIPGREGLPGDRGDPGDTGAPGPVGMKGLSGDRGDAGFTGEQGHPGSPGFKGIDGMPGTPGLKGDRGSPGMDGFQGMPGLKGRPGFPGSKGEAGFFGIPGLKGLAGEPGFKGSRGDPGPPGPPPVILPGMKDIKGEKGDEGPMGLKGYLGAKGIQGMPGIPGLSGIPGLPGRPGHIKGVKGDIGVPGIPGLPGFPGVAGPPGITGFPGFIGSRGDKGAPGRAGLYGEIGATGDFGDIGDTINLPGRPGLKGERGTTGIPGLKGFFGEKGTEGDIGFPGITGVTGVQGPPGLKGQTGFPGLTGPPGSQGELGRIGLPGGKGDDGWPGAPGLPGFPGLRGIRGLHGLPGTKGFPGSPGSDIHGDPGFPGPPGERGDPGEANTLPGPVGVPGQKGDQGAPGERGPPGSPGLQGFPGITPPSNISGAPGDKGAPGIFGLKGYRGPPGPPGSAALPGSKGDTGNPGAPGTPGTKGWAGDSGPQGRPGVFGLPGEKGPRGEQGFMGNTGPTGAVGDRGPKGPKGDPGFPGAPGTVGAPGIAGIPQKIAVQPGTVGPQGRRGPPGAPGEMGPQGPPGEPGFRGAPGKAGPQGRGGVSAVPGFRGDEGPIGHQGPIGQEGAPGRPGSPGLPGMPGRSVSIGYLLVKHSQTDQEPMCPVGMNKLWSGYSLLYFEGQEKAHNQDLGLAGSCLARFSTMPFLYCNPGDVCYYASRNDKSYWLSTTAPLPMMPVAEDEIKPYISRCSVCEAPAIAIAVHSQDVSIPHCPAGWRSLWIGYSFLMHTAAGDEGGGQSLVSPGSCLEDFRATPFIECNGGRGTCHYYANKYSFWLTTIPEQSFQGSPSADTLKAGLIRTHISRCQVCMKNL
Sequence of type IV collagen (chain, as listed by the source, chain 2 of 2): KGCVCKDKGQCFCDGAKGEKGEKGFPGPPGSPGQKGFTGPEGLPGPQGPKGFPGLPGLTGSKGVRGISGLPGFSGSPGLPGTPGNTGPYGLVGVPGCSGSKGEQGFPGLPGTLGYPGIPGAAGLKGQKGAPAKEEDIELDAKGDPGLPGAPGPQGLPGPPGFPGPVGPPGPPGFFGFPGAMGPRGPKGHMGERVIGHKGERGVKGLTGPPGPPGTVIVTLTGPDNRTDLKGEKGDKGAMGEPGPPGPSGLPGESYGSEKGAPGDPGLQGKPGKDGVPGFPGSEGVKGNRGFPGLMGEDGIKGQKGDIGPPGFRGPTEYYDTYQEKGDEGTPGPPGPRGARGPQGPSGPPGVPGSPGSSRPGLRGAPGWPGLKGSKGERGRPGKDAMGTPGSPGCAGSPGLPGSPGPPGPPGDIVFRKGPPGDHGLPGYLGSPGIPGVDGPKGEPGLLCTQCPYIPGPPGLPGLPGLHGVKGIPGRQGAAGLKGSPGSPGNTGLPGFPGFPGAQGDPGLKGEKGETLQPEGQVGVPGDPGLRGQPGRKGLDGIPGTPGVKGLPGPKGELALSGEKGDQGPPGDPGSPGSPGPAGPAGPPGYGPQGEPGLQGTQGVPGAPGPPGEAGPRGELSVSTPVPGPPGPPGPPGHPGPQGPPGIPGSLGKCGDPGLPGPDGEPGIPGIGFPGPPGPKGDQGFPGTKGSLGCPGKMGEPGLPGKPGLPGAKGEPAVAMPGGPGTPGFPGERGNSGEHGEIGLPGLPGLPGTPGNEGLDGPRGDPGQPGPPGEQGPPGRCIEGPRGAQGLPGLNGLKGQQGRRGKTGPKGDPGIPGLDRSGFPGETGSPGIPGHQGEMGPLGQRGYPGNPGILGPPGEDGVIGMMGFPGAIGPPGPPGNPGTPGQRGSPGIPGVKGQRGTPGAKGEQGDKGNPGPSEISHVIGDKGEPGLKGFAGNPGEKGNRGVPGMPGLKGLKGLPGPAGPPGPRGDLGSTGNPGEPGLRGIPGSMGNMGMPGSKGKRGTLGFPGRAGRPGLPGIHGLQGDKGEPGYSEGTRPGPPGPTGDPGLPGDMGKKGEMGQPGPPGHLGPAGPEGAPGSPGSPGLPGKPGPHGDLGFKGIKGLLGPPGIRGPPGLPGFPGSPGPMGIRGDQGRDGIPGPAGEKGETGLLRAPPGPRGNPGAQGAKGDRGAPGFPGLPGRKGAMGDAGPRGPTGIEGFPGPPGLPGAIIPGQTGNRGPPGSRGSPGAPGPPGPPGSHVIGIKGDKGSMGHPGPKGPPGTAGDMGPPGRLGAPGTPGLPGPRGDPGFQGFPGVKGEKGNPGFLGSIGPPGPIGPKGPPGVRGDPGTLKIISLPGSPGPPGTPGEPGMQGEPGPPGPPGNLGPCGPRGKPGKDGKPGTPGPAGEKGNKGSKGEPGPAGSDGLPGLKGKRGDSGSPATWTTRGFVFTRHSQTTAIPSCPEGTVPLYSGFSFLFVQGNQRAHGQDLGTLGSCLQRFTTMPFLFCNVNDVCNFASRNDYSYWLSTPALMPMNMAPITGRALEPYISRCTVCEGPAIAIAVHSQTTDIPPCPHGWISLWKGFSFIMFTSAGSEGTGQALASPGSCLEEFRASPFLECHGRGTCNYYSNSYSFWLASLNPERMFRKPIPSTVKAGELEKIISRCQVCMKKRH

For stromelysin 1, the “cleavage seen on a gel” value in data set [1] was “stromelysin 1 and gelatinase B being able to degrade this proteoglycan”. Further, in data set [2], the Selectivity v. Coll-3, substrate 5 uM is 400 unitless.

As for gelatinase B, the “cleavage seen on a gel” value in data set [1] is “stromelysin 1 and gelatinase B being able to degrade this proteoglycan”; in [3], “Both collagenase 1 and gelatinase B processed type IV collagen under the conditions used in our experiments”. Also, the Selectivity v. Coll-3, substrate 5 uM in data set [2] is 217 unitless.

Consider human Collagenase-3, for which the Specificity Constant in data set [4] was 32700 1/sM; in [23] it was 421000 1/sM; in data set [41], 4.4e+06 1/sM and 1.62e+06 1/sM. Besides, the figures for the Specificity Constant, + Gel in data set [4], in [23] and in data set [41] were 26900 1/sM, 471000 1/sM and 1.74e+06 1/sM, respectively. Further, the Specificity Constant (kcat/Km) in data set [5] is 700000 1/sM; in [6] it was 2.4e+06 1/sM; in [7], 868000 1/sM; in data set [8], 1.15e+06 1/sM; in data set [9], 1.29e+06 1/sM; in data set [10] it was 705000 1/sM. Also, the Specificity Constant (kcat/Km) in [11] was 2.69e+06 1/sM; in [12], 634000 1/sM; in data set [13] it was 2.32e+06 1/sM; in data set [14] it was 377000 1/sM; in [15], 1.14e+06 1/sM; in [16], 338000 1/sM. Further, the Specificity Constant (kcat/Km) in data set [17] is 677000 1/sM; in data set [18] it was 1.41e+06 1/sM; in data set [19], 2.33e+06 1/sM; in [20] it was 980000 1/sM; in [21], 1.3e+06 1/sM; in [22] it was 5.66e+06 1/sM. Besides, the Specificity Constant (kcat/Km) in data set [24] was 1.69e+06 1/sM; in data set [25], 3.73e+06 1/sM; in data set [26] it was 3.92e+06 1/sM; in data set [27], 1.04e+06 1/sM; in [28], 454000 1/sM; in data set [29], 885000 1/sM. For the same substance, the Specificity Constant (kcat/Km) in data set [30] is 230000 1/sM; in data set [31], 973000 1/sM; in [32] it was 1.28e+06 1/sM; in data set [33] it was 887000 1/sM; in data set [34], 1.1e+06 1/sM; in [36], 900000 1/sM. Moreover, the Specificity Constant (kcat/Km) in [38] is 191000 1/sM; in data set [39] it was 528000 1/sM; in [40], 4.46e+06 1/sM; in data set [42] it was 284000 1/sM; in data set [43], 598000 1/sM; in data set [44], 862000 1/sM. The Specificity Constant (kcat/Km) in [45] is 1.76e+06 1/sM; in data set [46], 1.54e+06 1/sM; in [47] it was 91700 1/sM; in data set [48], 1.76e+06 1/sM; in data set [49] it was 734000 1/sM; in data set [50], 813000 1/sM. For the same substance, the “cleavage seen on a gel” value in data set [1] is “Cleavage of biglycan generated peptide fragments of 28, 17, 8, and 6 kDa”; in data set [3], “type IV collagen digestion gave 3-4 detectable cleavage products (85 kDa, 80 kDa, 35 kDa and 28 kDa”. In data set [2], the Specificity Constant (kcat/Km), substrate 5 uM is 2.57e+06 1/sM. For the same substance, the Specificity Constant, 0.85 to 2.10 Hours, + 1.6 ug/ml TIICol in data set [23] is 1.54e+06 1/sM. Moreover, the Specificity Constant, 0.85 to 2.10 Hours, + 4.9 ug/ml TIICol in data set [23] was 1.88e+06 1/sM. In [23], the Specificity Constant, 0.85 to 2.10 Hours, + 15 ug/ml TIICol is 2.25e+06 1/sM. Also, in [23], the Specificity Constant, 0.85 to 2.10 Hours, + 44 ug/ml TIICol was 2.55e+06 1/sM. Moreover, the Specificity Constant, 0.85 to 2.10 Hours, + .18 ug/ml TIICol in data set [23] is 1.33e+06 1/sM. Moreover, in data set [23], the Specificity Constant, 0.85 to 2.10 Hours, + .55 ug/ml TIICol was 1.47e+06 1/sM. The Specificity Constant, 0.85 to 2.10 Hours, no TIICol in [23] was 1.11e+06 1/sM. Also, in [35], the Specificity Constant (kcat/Km), + 1:1 Gelatin was 340000 1/sM. Also, the Specificity Constant (kcat/Km), + 1:4 Gelatin in [35] is 562000 1/sM. The Specificity Constant (kcat/Km), + 1:16 Gelatin in data set [35] is 1.93e+06 1/sM. Also, in data set [35], the Specificity Constant (kcat/Km), + 1:64 Gelatin is 2.67e+06 1/sM. The Specificity Constant (kcat/Km), + 1:256 Gelatin in data set [35] is 4.65e+06 1/sM. Moreover, in data set [35], the Specificity Constant (kcat/Km), + H2O was 3.16e+06 1/sM. For the same substance, the “sensitivity for collagenase 3 against the consensus substrate FlSb1” value in data set [37] is given as 100-fold less sensitive for collagenase 3 compared to the consensus substrate.
